What was measured:
[1] = system: Pseudomonas fluorescens phosphinothricin dehydrogenase (PPTDH, PfGluDH; WP_150701510.1) mutant A164G_R205K_T332A, SEQ ID No.1; type: biochemical
CP(=O)(O)CCC(=O)C(=O)O = experiment: cells, lysate or membranes named; conditions: pH 7.0; 40.0 °C

Compound	catalytic efficiency (kcat/Km) for PPO, increase compared with the wild type [1]	Km (CP(=O)(O)CCC(=O)C(=O)O)	kcat (CP(=O)(O)CCC(=O)C(=O)O)	kcat/Km (CP(=O)(O)CCC(=O)C(=O)O)
CP(=O)(O)CCC(=O)C(=O)O [PPO, 2-carbonyl-4-(hydroxymethylphosphono)butyric acid]	145.83 times			
Pseudomonas fluorescens phosphinothricin dehydrogenase (PPTDH, PfGluDH; NCBI accession number WP_150701510.1), wild type (Pseudomonas azerbaijanoccidentalis)		6.12 ± 0.32 mM	7.47 ± 0.22 s⁻¹	1220 M⁻¹ s⁻¹

Reference: patent publication US12152264B2, “Phosphinothricin dehydrogenase mutant, genetically engineered bacterium and one-pot multi-enzyme synchronous directed evolution method” (ZHEJIANG UNIVERSITY OF TECHNOLOGY, priority 2020, dated 2024)
